Test results taken from the supplement of paper PMC10567573.

B1: KRT34 (parent)
chain: YQSYFKTIEELQQKILCAKAENAR
B2: PDZK1 (parent)
chain: QKEQGLSDNILSPVMNGGVQTWTQ

Variants of: B1
Experiment: protein stability index of a GFP-peptide fusion (GPS, HEK-293T) (PSI 1-6); higher = more stable
Conditions: c terminus: a fixed tail appended
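Note: lentivirally expressed fusions sorted by FACS into six bins by GFP to DsRed ratio, PSI derived from sequencing read proportions per bin multiplied by bin number.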

Protein stability index of substitutions, site by site:
K14: L 2.62, P 1.97, F 2, S 2.27, C 1.2, A 1.41, Y 1.46, V 1.98, E 2.61, Q 2.14, N 1.53, I 1.52, D 1.23, M 1.46, H 1.99, G 1.69, W 3.3, T 1.56, R 1.77
A20: P 1.79, F 1.4, C 2.01, W 1.46, Y 1.3, I 1.86, H 2.06, Q 1.78, V 1.71, N 1.71, L 2.34, E 2.14, M 2.57, D 2.18, T 1.87, K 2.16, R 1.88
K19: Q 2.62, G 1.92, I 2.39, S 1.9, T 1.39, E 1.99, C 1.78, R 1.91, L 2.93, N 1.83, A 1.87, H 1.64, P 2.15, W 2.29, Y 1.35, D 2.48, M 2.51, F 1.74
Q13: T 1.74, P 1.78, N 1.92, V 1.96, A 2.02, H 2.29, L 1.46, F 2.05, I 1.5, Y 1.54, G 1.96, D 2.26, E 2.2, K 1.95, S 1.52, M 1.82, R 2.16, C 1.82
A23: P 2.38, K 2.17, N 1.55, G 1.96, D 2.08, S 2.05, C 1.39, I 1.65, V 1.32, H 2.93, E 2.71, Q 2.17, T 1.64, Y 1.87, L 2.01, F 2.72, M 1.88, R 2.06
R24: W 2.32, N 2.25, T 1.64, V 2.78, E 1.32, D 1.16, Y 2.6, A 1.52, S 1.74, M 1.02, F 1.91, L 1.77, K 1.93, C 1.59, Q 3.56, P 1.57, G 1.16, I 2.17, H 2.2
I15: R 1.66, W 2.2, E 2.03, H 1.87, N 2.23, C 1.16, T 1.57, D 1.88, Y 2.25, F 1.6, P 1.71, Q 1.71, S 1.81, M 1.89, G 1.45, L 1.95, K 2.71
A18: C 2.5, T 2.1, R 1.68, W 2.73, I 2.04, E 1.45, L 2.04, N 2.07, D 2.16, Q 1.83, F 2.75, K 1.99, Y 2.16, P 2.21, H 1.53, G 1.78, V 1.88
C17: L 2.6, G 2.32, S 2.19, E 2.39, Q 2.56, W 2.94, R 2.42, D 1.84, V 1.37, K 2.51, F 1.97, T 2.04, Y 2.15, P 2.25, M 2.11, A 2.56, I 2.16, N 1.88, H 2.06
L16: Q 1.66, T 1.72, N 1.75, G 2.02, R 2.02, K 1.92, H 2.12, P 1.41, M 1.89, E 2.63, W 1.29, C 1.84, Y 2.28, S 1.97, D 1.96, F 1.6, I 1.67, A 1.8
N22: P 1.89, D 2.54, R 1.43, Q 2.09, S 2.46, L 2.26, F 2.17, K 2.22, Y 1.59, M 1.59, E 1.89, A 1.69, T 2.4, C 2.04, G 1.36, H 1.81
Q12: Y 1.77, V 1.55
E21: M 1.26, C 2.38, D 1.74, Y 1.27, N 1.69, H 2.24, P 2.14, S 1.96, Q 1.89, G 1.03, V 2.42, L 2.17, A 2.93, I 1.29, T 2.05, K 1.99, F 1.17, R 2.12

Variants of: B2
Experiment: as above
Conditions: c terminus: a fixed tail appended

Protein stability index of substitutions, site by site:
G5: D 2.85, P 3.15, N 2.7, W 2.29, R 2.7, S 1.87, M 1.99, Y 1.66, I 2.48, T 2.92, A 2.4, F 2.44, E 2.82, H 1.98, C 3.57, Q 2.7
L6: Q 3.92, M 2.12, W 2.56, A 2.96, R 3.71, K 4.46, G 2.61, Y 2.49, F 1.87, P 3.03, E 3.65, C 2.98, N 3.29, H 3.12, T 3.27, D 2.65
Q4: M 1.82, W 1.85, C 2.08, R 3.73, Y 1.98, K 2.08, P 2.64, D 3.67, T 2.78, V 2.52, L 2.14, N 2.29, F 2.21, H 2.61, E 2.85
E3: Y 1.68, D 3.51, A 3.02, L 2.12, Q 2.18, H 2.24, R 1.52, W 2.17, K 4.26, G 1.82, T 2.88, I 2.67, M 2.61, F 1.67, S 2.02, P 2.93, C 2.05, V 2.05
D8: C 1.51, F 1.1, G 3.29, E 3.04, I 2.05, K 2.1
S7: P 3.36, M 2.68, D 2.54, G 3.19, Q 2.13, N 2.77, I 2.48, E 3.43, K 2.18, T 2.09, C 3.27, A 2.51, F 2, Y 2.12
Q1: A 2.61, R 2.02, G 2.15, L 2.41, C 1.91, P 3.23, E 3.26, V 1.96, W 1.94, T 2.7, F 1.97, N 2.75, K 2.58, M 2.98, I 2.12, D 3.37, S 2.1, Y 2.47
K2: F 2.26, R 3.05, P 2.67, I 2.42, C 3.57, G 2.76, M 2.51, S 3.13, Q 3.15, Y 3.24, H 2.81, N 2.88, T 3.26, D 3.23, E 3.35
